{"source": "paper doi:10.1101/2022.09.14.507982", "about": "(bioRxiv, 2022)", "binders": {"B1": {"name": "90 kDa isoform of palladin (natural protein)", "chain": "MSALASRSAPAMQSSGSFNYARPKQFIAAQNLGPASGHGTPASSPSSSSLPSPMSPTPRQFGRAPVPPFAQPFGAEPEAPWGSSSPSPPPPPPPVFSPTAAFPVPDVFPLPPPPPPLPSPGQASHCSSPATRFGHSQTPAAFLSALLPSQPPPAAVNALGLPKGVTPAGFPKKASRTARIASDEEIQGTKDAVIQDLERKLRFKEDLLNNGQPRLTYEERMARRLLGADSATVFNIQEPEEETANQEYKVSSCEQRLISEIEYRLERSPVDESGDEVQYGDVPVENGMAPFFEMKLKHYKIFEGMPVTFTCRVAGNPKPKIYWFKDGKQISPKSDHYTIQRDLDGTCSLHTTASTLDDDGNYTIMAANPQGRISCTGRLMVQAVNQRGRSPRSPSGHPHVRRPRSRSRDSGDENEPIQERFFRPHFLQAPGDLTVQEGKLCRMDCKVSGLPTPDLSWQLDGKPVRPDSAHKMLVRENGVHSLIIEPVTSRDAGIYTCIATNRAGQNSFSLELVVAAKEAHKPPVFIEKLQNTGVADGYPVRLECRVLGVPPPQIFWKKENESLTHSTDRVSMHQDNHGYICLLIQGATKEDAGWYTVSAKNEAGIVSCTARLDVYTQWHQQSQSTKPKKVRPSASRYAALSDQGLDIKAAFQPEANPSHLTLNTALVESEDL"}}, "target": "F-actin (filamentous actin from rabbit muscle) (rabbit, UniProt P68135 1-377)", "assay": "co-sedimentation", "note": "“And” between values parts separate entries of the source, which are not always exact repeats. Equal entries are not always repeated."}
{"binder": "B1", "values": [{"measurement": "Kd", "value": "2110 nM and 3100 nM"}]}
